{
  "source": "patent US20250333496A1",
  "about": "(Novo Nordisk, published 2025)",
  "binders": {"B1": {"name": "Polypeptide_29 (VHH)", "VHH": "EVQLVESGGGLVQPGGSLKLSCTTSGRRFSEYAVGWFRQAPGKEREFVADIGEQAENTWYAESVLGRFTISRDDAKNTVYLEMDGLKPEDTAVYYCAADKYGVGGNAQGYYDSWGQGTQVTVSS", "notes": "VHH_1.6 with C-terminal His tag extension E1; also called [VHH_1.6]-E1"}, "B2": {"name": "Compound 19 (VHH)", "VHH": "EVQLVESGGGLVQPGGSLKLSCTTSGRRFSEYAVGWFRQAPGKEREFVADIGEQAENTWYAESVLGRFTISRDDAKNTVYLEMDGLKPEDTAVYYCAADKYGVGGNAQGYYDSWGQGTQVTVSS", "modifications": "Chem. 27 (C20 fatty acid substituent) on Cys in position 4 and on Cys in position 6 of the extension (SEQ ID NO: 162)"}, "B3": {"name": "Compound 18 (VHH)", "VHH": "EVQLVESGGGLVQPGGSLKLSCTTSGRRFSEYAVGWFRQAPGKEREFVADIGEQAENTWYAESVLGRFTISRDDAKNTVYLEMDGLKPEDTAVYYCAADKYGVGGNAQGYYDSWGQGTQVTVSS", "modifications": "Chem. 26 (C18 fatty acid substituent) on Cys in position 4 and on Cys in position 6 of the extension (SEQ ID NO: 162)"}, "B4": {"name": "Vobarilizumab anti-IL-6R domain SIA comparator (VHH)", "VHH": "EVQLVESGGGLVQPGGSLRLSCAASGSVFKINVMAWYRQAPGKGRELVAGIISGGSTSYADSVKGRFTISRDNAKNTLYLQMNSLRPEDTAVYYCAFITTESDYDLGRRYWGQGTLVTVSS"}, "B5": {"name": "Reference Anti-IL6 Fab (Fab, V domains shown)", "VH": "EVQLVESGGGLVQPGGSLRLSCAASGFTISSNYMIWVRQAPGKGLEWVSDLYYYAGDTYYADSVKGRFTMSRDISKNTVYLQMNSLRAEDTAVYYCARWADDHPPWIDLWGRGTLVTVSS", "VL": "DIQMTQSPSTLSASVGDRVTITCRASQGISSWLAWYQQKPGKAPKVLIYKASTLESGVPSRFSGSGSGTEFTLTISSLQPDDFATYYCQQSWLGGSFGQGTKLEIKR"}, "B6": {"name": "anti-IL-6 VHH building block 7G05 SIA comparator (VHH)", "VHH": "QVKLEESGGGLVQPGGSLRLSCAASGSISRFNIMGWYRQAPGKQRELVADITNGGTTMYADSVKGRFTISRDNTKNTVYLQMNSLKPEDTAVYYCHTYYPTTGFDDWGQGAQVTVSS"}},
  "key": {"[1]": {"target": "T1, human IL-6 (mature hIL-6) (human, UniProt P05231 30-212)", "T1 sequence (P05231 30-212)": "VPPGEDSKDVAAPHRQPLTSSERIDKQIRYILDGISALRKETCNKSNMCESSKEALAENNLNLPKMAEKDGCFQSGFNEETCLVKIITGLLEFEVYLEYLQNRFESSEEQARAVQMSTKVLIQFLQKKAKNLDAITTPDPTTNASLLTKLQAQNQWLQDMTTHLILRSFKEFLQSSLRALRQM", "assay": "cell-based or functional assay"}, "[2]": {"target": "T2, recombinant human HPC4-tagged IL-6 (human, UniProt P05231 30-212)", "T2 construct": "captured on an anti-HPC4 antibody in SPR; also called HPC4-human IL6", "T2 sequence (P05231 other isoform, or with tags, fused parts or gaps limits assumed)": "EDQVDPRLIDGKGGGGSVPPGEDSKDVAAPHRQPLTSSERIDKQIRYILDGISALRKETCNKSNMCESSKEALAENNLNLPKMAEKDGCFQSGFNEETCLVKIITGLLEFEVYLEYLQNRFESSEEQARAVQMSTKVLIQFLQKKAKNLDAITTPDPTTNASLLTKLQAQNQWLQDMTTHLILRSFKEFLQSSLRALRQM", "assay": "SPR, HPC4-IL-6 captured on anti-HPC4 antibody, VHH injected, 25 C, 1:1 model", "protocol": "Binding of purified anti-IL-6 VHHs to recombinant human HPC4-tagged IL-6 (SEQ ID NO: 98) was probed by Surface Plasmon Resonance (SPR).\nIL-6 was captured at a flow rate of 10 μL/min for 30 seconds.\nSubsequently, concentration series of VHH polypeptides according to Table 33 were injected at a flow rate of 50 μL/min for 200 seconds to allow for binding to […] followed by 600 seconds running buffer (10 mM HEPES, 150 mM NaCl, 5 mM CaCl₂, 0.05% (v/v) Surfactant P20, 1 mg/mL bovine serum albumin, pH 7.4) injection allowing dissociation from IL-6. The running buffer was also used for dilution of anti-IL-6 VHHs and IL-6. Regeneration of the chip was achieved using a regeneration buffer consisting of 50 mM EDTA in running buffer without CaCl₂, 30 seconds contact time, and a 30 μL/min flow rate applied twice to the surface. The binding data were collected at 25° C. at either a Biacore instrument (Cytiva AB, Uppsala) or a Bruker SPR32 (Bruker Daltonics). Data were analysed according to a 1:1 model using either BiaEvaluation or Biacore Insight Evaluation (Cytiva AB, Uppsala) or Bruker Analyser (Bruker Daltonics)."}, "[3]": {"target": "T1, human IL-6 (mature hIL-6)", "assay": "cell-based or functional assay", "remark": "listed apart in the source"}, "[4]": {"target": "T1, human IL-6 (mature hIL-6)", "assay": "cell-based or functional assay", "remark": "listed apart in the source"}, "[5]": {"target": "T1, human IL-6 (mature hIL-6)", "assay": "cell-based or functional assay", "remark": "listed apart in the source"}, "[6]": {"target": "T3, IL-6R on HEK293-STAT3-Luc reporter cells (UniProt P08887 20-468, limits assumed)", "T3 sequence (looked up)": "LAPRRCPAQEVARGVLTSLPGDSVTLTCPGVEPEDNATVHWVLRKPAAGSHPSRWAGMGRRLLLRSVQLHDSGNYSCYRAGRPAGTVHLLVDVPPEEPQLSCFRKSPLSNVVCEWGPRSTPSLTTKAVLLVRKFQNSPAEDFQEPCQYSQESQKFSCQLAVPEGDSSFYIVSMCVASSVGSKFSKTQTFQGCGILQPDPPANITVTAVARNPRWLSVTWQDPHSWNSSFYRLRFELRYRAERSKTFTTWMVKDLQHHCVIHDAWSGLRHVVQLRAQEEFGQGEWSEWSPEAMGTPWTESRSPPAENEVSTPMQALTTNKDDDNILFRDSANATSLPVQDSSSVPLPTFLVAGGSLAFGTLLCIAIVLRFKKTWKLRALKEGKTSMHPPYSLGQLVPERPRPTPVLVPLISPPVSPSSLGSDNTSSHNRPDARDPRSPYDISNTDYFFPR", "assay": "cell-based or functional assay"}, "[7]": {"target": "T3, IL-6R on HEK293-STAT3-Luc reporter cells", "assay": "cell-based or functional assay", "remark": "listed apart in the source"}},
  "note": "Read-outs that look alike come from different tables or passages of the source.",
  "data": [
    {"binder": "B1", "values": [
      {"measurement": "IC50 (nM), STAT3-luc reporter gene assay", "setting": "[1]", "result": 0.034, "unit": "nM"},
      {"measurement": "Relative IC50 to Reference Polypeptide_29", "setting": "[1]", "result": 1, "unit": "fold"},
      {"measurement": "Kd", "setting": "[2]", "result": 0.0039, "unit": "nM"},
      {"measurement": "koff", "setting": "[2]", "result": "8.69e-05", "unit": "s⁻¹"},
      {"measurement": "kon", "setting": "[2]", "result": "2.23e+07", "unit": "M⁻¹ s⁻¹"},
      {"measurement": "IC50 (nM) mean, STAT3-luc reporter gene assay", "setting": "[3]", "result": 0.039, "unit": "nM"},
      {"measurement": "Relative IC50 to Polypeptide_29", "setting": "[3]", "result": 1, "unit": "fold"},
      {"measurement": "IC50 (nM), STAT3-luc reporter gene assay", "setting": "[4]", "result": 0.044, "unit": "nM"},
      {"measurement": "Relative IC50 to Polypeptide_29", "setting": "[4]", "result": 1, "unit": "fold"},
      {"measurement": "Relative IC50 to Reference Anti-IL6 Fab", "setting": "[4]", "result": 1.1, "unit": "fold"},
      {"measurement": "IC 50 (nM), reporter gene assay, 0% HSA", "setting": "[5]", "result": 0.035, "unit": "nM"}
    ]},
    {"binder": "B2", "values": [
      {"measurement": "IC50 (nM) mean, STAT3-luc reporter gene assay", "setting": "[3]", "result": 0.042, "unit": "nM"},
      {"measurement": "Relative IC50 to Polypeptide_29", "setting": "[3]", "result": 1.1, "unit": "fold"}
    ]},
    {"binder": "B3", "values": [
      {"measurement": "IC50 (nM) mean, STAT3-luc reporter gene assay", "setting": "[3]", "result": 0.043, "unit": "nM"},
      {"measurement": "Relative IC50 to Polypeptide_29", "setting": "[3]", "result": 1.2, "unit": "fold"}
    ]},
    {"binder": "B4", "values": [
      {"measurement": "IC50 (nM), STAT3-luc reporter gene assay", "setting": "[6]", "result": 0.114, "unit": "nM"},
      {"measurement": "Relative IC50 to Polypeptide_29", "setting": "[6]", "result": 2.6, "unit": "fold"},
      {"measurement": "Relative IC50 to Reference Anti-IL6 Fab", "setting": "[6]", "result": 2.9, "unit": "fold"},
      {"measurement": "IC 50 (nM), reporter gene assay, 0% HSA", "setting": "[7]", "result": 0.114, "unit": "nM"}
    ]},
    {"binder": "B5", "values": [
      {"measurement": "IC50 (nM), STAT3-luc reporter gene assay", "setting": "[4]", "result": 0.039, "unit": "nM"},
      {"measurement": "Relative IC50 to Polypeptide_29", "setting": "[4]", "result": 0.9, "unit": "fold"},
      {"measurement": "Relative IC50 to Reference Anti-IL6 Fab", "setting": "[4]", "result": 1, "unit": "fold"},
      {"measurement": "IC 50 (nM), reporter gene assay, 0% HSA", "setting": "[5]", "result": 0.026, "unit": "nM"},
      {"measurement": "IC 50 (nM), reporter gene assay, 1% HSA", "setting": "[5]", "result": 0.017, "unit": "nM"}
    ]},
    {"binder": "B6", "values": [
      {"measurement": "IC50 (nM), STAT3-luc reporter gene assay", "setting": "[4]", "result": 0.115, "unit": "nM"},
      {"measurement": "Relative IC50 to Polypeptide_29", "setting": "[4]", "result": 2.6, "unit": "fold"},
      {"measurement": "Relative IC50 to Reference Anti-IL6 Fab", "setting": "[4]", "result": 2.9, "unit": "fold"}
    ]}
  ]
}
